Laboratory results as given in patent publication US5985822A, “Inhibition of glial cell proliferation with N-CAM homophilic peptides” (The Scripps Research Institute, priority 1995, dated 1999).

System: tyrosine phosphorylated proteins (60-70 kDa and approximately 120 kDa)
Test: Anti-phosphotyrosine immunoprecipitation and immunoblot of bFGF-stimulated astrocytes
Type: cell-based, rat
Settings: N-CAM 2 μg/ml 30 minutes, then bFGF 100 ng/ml 10 minutes
Protocol: Astrocyte cells were seeded at a density of 7×10^4 /cm^2 in a 100 mm tissue culture dish in Dulbecco's modified essential medium (DMEM) containing 10% fetal calf serum and gentamycin (5 μg/ml) at 37 degrees C with 7% CO2. After overnight culture, the medium was replaced with serum-free medium and the cells are cultured for an additional 48 hr. The serum-starved cells were treated for 30 minutes in the presence of N-CAM (2 μg/ml) or buffer alone and then stimulated for 10 minutes with bFGF (100 ng/ml) to stimulate tyrosine phosphorylation through the FGF receptor. […]
Immunoblotting was performed by incubation with the indicated antibodies followed by ^125 I-labeled protein A; the resulting autoradiogram was exposed for 14 hr on XAR film at -70° C. or scanned on a Molecular Dynamics PhosphorImager (Sunnyvale, Calif.). The amount of reactivity with antibodies to phosphotyrosine relative to the amount of reactivity with antibodies to each specific protein can be calculated from imaging these gel blots, in extracts from N-CAM treated cells vs. non treated cells. This determines whether the FGF receptor or other proteins analyzed in this same paradigm are changed in their levels of tyrosine phosphorylation upon N-CAM treatment.

B1: N-CAM: neural cell adhesion molecule purified from early postnatal rat brains by affinity chromatography, mainly polysialylated embryonic form (protein, UniProt P13596 20-858, looked up)
Neural cell adhesion molecule …: LQVDIVPSQGEISVGESKFFLCQVAGDAKDKDISWFSPNGEKLSPNQQRISVVWNDDDSSTLTIYNANIDDAGIYKCVVTAEDGTQSEATVNVKIFQKLMFKNAPTPQEFKEGEDAVIVCDVVSSLPPTIIWKHKGRDVILKKDVRFIVLSNNYLQIRGIKKTDEGTYRCEGRILARGEINFKDIQVIVNVPPTVQARQSIVNATANLGQSVTLVCDADGFPEPTMSWTKDGEPIENEEEDDEKHIFSDDSSELTIRNVDKNDEAEYVCIAENKAGEQDASIHLKVFAKPKITYVENQTAMELEEQVTLTCEASGDPIPSITWRTSTRNISSEEKASWTRPEKQETLDGHMVVRSHARVSSLTLKSIQYTDAGEYICTASNTIGQDSQSMYLEVQYAPKLQGPVAVYTWEGNQVNITCEVFAYPSATISWFRDGQLLPSSNYSNIKIYNTPSASYLEVTPDSENDFGNYNCTAVNRIGQESLEFILVQADTPSSPSIDRVEPYSSTAQVQFDEPEATGGVPILKYKAEWKSLGEEAWHSKWYDAKEANMEGIVTIMGLKPETRYAVRLAALNGKGLGEISAATEFKTQPVREPSAPKLEGQMGEDGNSIKVNLIKQDDGGSPIRHYLVKYRALASEWKPEIRLPSGSDHVMLKSLDWNAEYEVYVVAENQQGKSKAAHFVFRTSAQPTAIPANGSPTAGLSTGAIVGILIVIFVLLLVVMDITCYFLNKCGLLMCIAVNLCGKAGPGAKGKDMEEGKAAFSKDESKEPIVEVRTEEERTPNHDGGKHTEPNETTPLTEPEKGPVETKSEPQESEAKPAPTEVKTVPNEATQTKENESKA
modifications: polysialylated embryonic form
For B1, the “tyrosine phosphorylation of a 60-70 kDa protein and a protein at approximately 120 kDa” value was “diminished tyrosine phosphorylation”.
